Test results: US20200325475, “DNA APTAMER […] BINDING TO CFP10, AND USE […]” (MD APTUS INC., published 2020)

Tests used:
[1] = target: CFP10 (culture filtrate protein 10 kDa) (Mycobacterium tuberculosis H37Rv, UniProt P9WNK5 P9WNK5:1-100); experiment: Cy3-aptamer binding to CFP10 on magnetic beads, fluorescence; 20 mM Tris, 50 mM NaCl, 5 mM KCl, 5 mM MgCl2, pH 8.0; conditions: tags: His6 tag, expressed from pET32a in E. coli BL21(DE3); label: Cy3 (fluorescence Kd assay)
Experimental: 400 pmole of CFP10 was mixed with 10 μL of magnetic beads, and then incubated in 100 μL of a binding buffer (20 mM Tris, 50 mM NaCl, 5 mM KCl, 5 mM MgCl₂, pH 8.0) for 1 hour. To separate unbound CFP10, washing was performed twice with a binding buffer. Subsequently, the resulting mixture was incubated together with various concentrations of a Cy3-labeled aptamer, and an unbound aptamer was removed by washing. The amount of Cy3-labeled ssDNA aptamer bound to the magnetic beads with CFP10 immobilized thereon was measured by fluorescence measurement (1420 Victor Multilabel counter, PerkinElmer, USA) by separating only Cy3-labeled ssDNA bound to CFP10. As a result, as shown in FIG. 3 and Table 2 below, the Kd value of the DNA aptamer having a CG6 base sequence was measured.

ESAT6 = ESAT6 (UniProt P9WNK7 P9WNK7:1-95); experiment: impedance biosensor, 10 pM protein in PBS
Excerpt: At this time, each protein was mixed at a concentration of 10 pM with PBS and used for detection.

CFP10 (culture filtrate protein 10 kDa), sequence (P9WNK5 whole entry, one chain of several): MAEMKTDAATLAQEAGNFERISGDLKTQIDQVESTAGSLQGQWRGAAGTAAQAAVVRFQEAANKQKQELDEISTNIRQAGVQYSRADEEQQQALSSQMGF
ESAT6, sequence (P9WNK7 whole entry, one chain of several): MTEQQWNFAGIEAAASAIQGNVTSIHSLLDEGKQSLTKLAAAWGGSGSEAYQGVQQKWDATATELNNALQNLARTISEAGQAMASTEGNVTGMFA

B1: CG6 (ssDNA)
DNA: CACCTAATACGACTCACTATAGCGGATCCGACCTAGGTTCAGAAGGCTTTCTATTTTCCCGGTGCCTCGCACTGGCTCGAACAAGCTTGC
For B1, the Kd [1] was 92.8 nM and the binding result (ESAT6) was “no binding”.
